The results in this text go back to patent US20240254239A1 (LAEKNA THERAPEUTICS SHANGHAI, published 2024).

In one experiment the target is T1, human FAPa ECD (human, UniProt Q12884 26-760).
T1 construct: extracellular domain; also called recombinant extracellular domain of FAPα
T1 sequence (looked up): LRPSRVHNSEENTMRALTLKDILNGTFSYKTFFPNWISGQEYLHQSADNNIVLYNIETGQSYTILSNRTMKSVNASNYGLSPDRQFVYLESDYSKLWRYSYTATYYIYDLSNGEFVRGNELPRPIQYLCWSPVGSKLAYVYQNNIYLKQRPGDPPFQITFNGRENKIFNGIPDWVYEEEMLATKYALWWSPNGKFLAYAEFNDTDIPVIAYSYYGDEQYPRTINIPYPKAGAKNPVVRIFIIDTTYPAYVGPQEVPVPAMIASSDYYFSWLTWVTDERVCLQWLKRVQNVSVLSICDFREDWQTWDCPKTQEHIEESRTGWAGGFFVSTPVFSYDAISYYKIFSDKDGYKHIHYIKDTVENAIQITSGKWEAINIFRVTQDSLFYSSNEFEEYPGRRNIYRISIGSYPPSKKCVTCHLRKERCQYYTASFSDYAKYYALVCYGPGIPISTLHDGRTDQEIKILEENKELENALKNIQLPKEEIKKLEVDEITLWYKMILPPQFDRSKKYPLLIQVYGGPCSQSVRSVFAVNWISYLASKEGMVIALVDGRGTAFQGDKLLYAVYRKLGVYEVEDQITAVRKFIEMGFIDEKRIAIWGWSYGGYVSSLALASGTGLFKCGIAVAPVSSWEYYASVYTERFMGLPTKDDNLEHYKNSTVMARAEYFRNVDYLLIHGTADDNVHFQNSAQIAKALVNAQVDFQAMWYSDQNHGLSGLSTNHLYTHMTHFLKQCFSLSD
Kind of experiment: direct ELISA on coated recombinant ECD (30 ng/well), HRP-conjugated secondary antibody, luminescence. Here is the method: (§1) Briefly, recombinant extracellular domain of PDGFRb, FAPα, ULBP1, uPAR, IGF1R, SIRPA, PD-L1, ANTXR1, CD248, or GPC3 (30 ng/well) was coated on white optiplate™-384 well HB plate. After overnight coating, standard direct ELISA assay was performed. Luminescence signal was detected after using secondary antibody with HRP conjugated. Binding activity of each antibody was determined based on dose dependent binding curve.
(In general: ELISA stands for enzyme-linked immunosorbent assay.)

The target in experiment [1] is T2, IGF-1R on TGFb1-activated primary human HSC cells (human, UniProt P08069 31-1367).
T2 construct: whole, on cells
Kind of experiment: flow cytometry on TGFb1-activated primary human HSC cells, 10 ug/ml antibody, fluorophore-conjugated secondary antibody. The protocol:
Relative expression levels of the antigens on activated HSC were assayed using FACS. Human primary hepatic stellate cells (ScienCell, 5301) were cultured in culture medium (ScienCell, 5300). The cells were activated using 2 ng/ml human TGFb1 (Sinobiological, 10804-HNAC) for 24 hours. These cells were then collected for FACS assay. Briefly, the cells were incubated with 10 μg/ml primary antibody in blocking buffer (10% FBS in PBS) at 4 °C for 1 hour. After two rounds of PBS washes, the cells were stained with secondary antibody conjugated with a fluorophore. The mean fluorescence intensity was measured using FACS. Among the antigens tested, fibroblast activation protein alpha (FAPα) was expressed at relatively high levels, while uPAR, IGF-1R, GPC3, CD248 and NKG2D ligands were expressed at relatively low levels on TGFb1-activated HSC cells.
For orientation: Flow cytometry measures light scatter and fluorescence of single cells or particles in a stream.

The target of another experiment is T3, human ANTXR1 ECD (human, UniProt Q9H6X2 33-321).
T3 construct: extracellular domain; also called recombinant extracellular domain of ANTXR1
T3 sequence (looked up): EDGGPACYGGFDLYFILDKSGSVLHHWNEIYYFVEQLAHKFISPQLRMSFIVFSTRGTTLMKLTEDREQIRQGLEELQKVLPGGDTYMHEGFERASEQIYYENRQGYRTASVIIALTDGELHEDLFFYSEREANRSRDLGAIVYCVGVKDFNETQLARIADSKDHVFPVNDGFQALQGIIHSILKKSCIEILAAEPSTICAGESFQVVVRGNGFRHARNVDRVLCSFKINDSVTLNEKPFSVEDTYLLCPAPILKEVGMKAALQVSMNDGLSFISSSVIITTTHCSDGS
Kind of experiment: direct ELISA on coated recombinant ECD (30 ng/well), HRP-conjugated secondary antibody, luminescence. Here is the method:
as §1

In the next experiment the target is T4, human SIRPA ECD (human, UniProt P78324 31-373).
T4 construct: extracellular domain; also called recombinant extracellular domain of SIRPA
The experiment is described as above. The protocol:
as §1

T2 sequence (P08069 31-1367): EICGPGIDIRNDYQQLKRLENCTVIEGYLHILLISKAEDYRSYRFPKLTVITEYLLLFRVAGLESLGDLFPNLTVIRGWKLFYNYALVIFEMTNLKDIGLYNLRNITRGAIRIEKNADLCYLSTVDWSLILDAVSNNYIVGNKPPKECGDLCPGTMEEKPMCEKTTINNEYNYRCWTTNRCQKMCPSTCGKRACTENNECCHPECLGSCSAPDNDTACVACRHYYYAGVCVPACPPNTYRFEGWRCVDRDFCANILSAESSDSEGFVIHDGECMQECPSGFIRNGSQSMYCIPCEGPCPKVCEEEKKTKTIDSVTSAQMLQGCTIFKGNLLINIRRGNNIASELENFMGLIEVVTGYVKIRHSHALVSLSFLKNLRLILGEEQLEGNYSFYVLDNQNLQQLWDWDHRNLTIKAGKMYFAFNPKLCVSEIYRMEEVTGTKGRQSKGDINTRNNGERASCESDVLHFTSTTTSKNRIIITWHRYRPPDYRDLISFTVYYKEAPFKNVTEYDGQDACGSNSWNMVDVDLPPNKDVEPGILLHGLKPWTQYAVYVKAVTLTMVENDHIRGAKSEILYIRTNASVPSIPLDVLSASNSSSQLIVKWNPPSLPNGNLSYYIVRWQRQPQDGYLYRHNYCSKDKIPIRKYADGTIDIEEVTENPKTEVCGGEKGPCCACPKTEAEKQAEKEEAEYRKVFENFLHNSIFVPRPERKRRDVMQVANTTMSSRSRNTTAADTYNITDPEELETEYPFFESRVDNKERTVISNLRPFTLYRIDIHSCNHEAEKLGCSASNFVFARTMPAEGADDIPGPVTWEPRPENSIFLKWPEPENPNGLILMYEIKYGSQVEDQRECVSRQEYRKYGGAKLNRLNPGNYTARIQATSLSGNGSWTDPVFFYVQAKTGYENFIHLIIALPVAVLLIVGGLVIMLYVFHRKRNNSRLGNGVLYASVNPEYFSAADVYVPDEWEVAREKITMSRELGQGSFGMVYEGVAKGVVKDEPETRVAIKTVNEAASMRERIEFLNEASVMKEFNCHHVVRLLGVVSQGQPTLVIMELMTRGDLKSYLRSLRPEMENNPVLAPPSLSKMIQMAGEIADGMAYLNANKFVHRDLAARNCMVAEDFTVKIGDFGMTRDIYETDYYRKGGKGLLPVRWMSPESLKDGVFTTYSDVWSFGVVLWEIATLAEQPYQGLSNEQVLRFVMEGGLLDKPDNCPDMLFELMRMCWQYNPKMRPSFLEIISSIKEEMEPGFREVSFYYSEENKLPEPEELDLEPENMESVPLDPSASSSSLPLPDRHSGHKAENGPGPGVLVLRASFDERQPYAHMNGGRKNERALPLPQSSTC
T4 sequence (P78324 31-373): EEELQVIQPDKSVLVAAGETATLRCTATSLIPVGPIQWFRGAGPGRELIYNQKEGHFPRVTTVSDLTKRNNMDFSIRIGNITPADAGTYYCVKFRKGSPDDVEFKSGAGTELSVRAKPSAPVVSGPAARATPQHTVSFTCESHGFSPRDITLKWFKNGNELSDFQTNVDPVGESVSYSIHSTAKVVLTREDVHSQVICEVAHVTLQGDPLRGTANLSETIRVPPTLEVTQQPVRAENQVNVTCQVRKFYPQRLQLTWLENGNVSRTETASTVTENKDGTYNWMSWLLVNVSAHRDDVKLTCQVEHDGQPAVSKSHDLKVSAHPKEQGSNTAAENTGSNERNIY

B1: α-FAPa 1 S239D/1332E (antibody, mouse IgG2a, kappa, V domains shown)
VH: QVQLVQSGAEVKKPGASVKVSCKTSRYTFTEYTIHWVRQAPGQRLEWIGGINPNNGIPNYNQKFKGRVTITVDTSASTAYMELSSLRSEDTAVYYCARRRIAYGYDEGHAMDYWGQGTLVTVSS
VL: DIVMTQSPDSLAVSLGERATINCKSSQSLLYSRNQKNYLAWYQQKPGQPPKLLIFWASTRESGVPDRFSGSGFGTDFTLTISSLQAEDVAVYYCQQYFSYPLTFGQGTKVEIKR
notes: also called α-FAPα 1 S239D/I332E
Regarding B1, the binding result in the experiment with human FAPa ECD was “binds”.

B2: α-IGF1R 2 S239D/1332E (antibody, human IgG1, kappa, V domains shown)
VH: EVQLLESGGGLVQPGGSLRLSCAASGFTFSNYPMYWVRQAPGKGLEWVSRISSSGGRTVYADSVKGRFTISRDNSKNTLYLQMNSLRAEDTAVYYCARDRWSRSAAEYGLGGYWGQGTLVTVSS
VL: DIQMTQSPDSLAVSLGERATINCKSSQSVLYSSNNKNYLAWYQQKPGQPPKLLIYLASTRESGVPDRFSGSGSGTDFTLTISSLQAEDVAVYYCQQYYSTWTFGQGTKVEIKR
notes: hIgG1 with S239D/I332E; also called α-IGF1R 2 S239D/I332E; exemplary anti-IGF1R antibody (α-IGF1R 2)
Turning to B2, the binding result in experiment [1] is given as “binds”.

B3: α-ANTXR1 2 mIgG2a S239D/1332E (antibody, V domains shown)
VH: QVQLKESPGALVKPTQTLTLTCTFSGFSLSTSGGGVSWIRQPPGKALEWLAHIYSNDDKSYSTSLKTRLTISKDTSKNQVVLTMTNMDPVDTATYYCARGGYFLDYWGQGTLVTVSS
VL: DIELTQPPSVSVAPGQTARISCSGDNIGGIYVHWYQQKPGQAPVLVIYADSKRPSGIPERFSGSNSGNTATLTISGTQAEDEADYYCQSYDITSLVFGGGTKLTVLG
notes: mIgG2a with S239D/I332E; also called α-ANTXR1 2 mIgG2a S239D/I332E; exemplary anti-ANTXR1 antibody (α-ANTXR1 2)
As to B3, in the experiment with human ANTXR1 ECD, the EC50 (read off the curve) (usually the concentration that produces a half-maximal response) is approximately 0.02 µg/mL.

B4: α-IGF1R 1 S239D/1332E (antibody, human IgG1, kappa, V domains shown)
VH: EVQLLESGGGLVQPGGSLRLSCAASGFTFSIYRMQWVRQAPGKGLEWVSGISPSGGTTWYADSVKGRFTISRDNSKNTLYLQMNSLRAEDTAVYYCARWSGGSGYAFDIWGQGTMVTVSS
VL: DIQMTQSPLSLSASVGDRVTITCQASRDIRNYLNWYQQKPGKAPKLLIYDASSLQTGVPSRFGGSGSGTDFSFTIGSLQPEDIATYYCQQFDSLPHTFGQGTKLEIKR
notes: hIgG1 with S239D/I332E; also called α-IGF1R 1 S239D/I332E; exemplary anti-IGF1R antibody (α-IGF1R 1)
Regarding B4, in experiment [1], the binding result was “binds”.

B5: α-SIRPA 1 S239D/1332E (antibody, human IgG1, kappa, V domains shown)
VH: EVQLQQSGAELVKPGASVKLSCTTSGFNFKDMYIHWVKQRPQQGLEWIGRIDPENDDTKYDPKFQDKATITADTSSNTAYLQLSNLPSEDTAVYYCARGNYVHWGQGTLVTVSA
VL: DIVLTQSPASLAVSLGQRATISCRASESVQYYGTSLMQWYQQKPGQPPKLLIYAASNVESGVPARFSGSGSGTDFSLNIYPVEEDDIAMYFCQQSRRVWTFGGGTKLEIKR
notes: Chimeric: murine variable regions, hIgG1 constant region with S239D/I332E; also called α-SIRPA 1 S239D/I332E; exemplary anti-SIRPA antibody (α-SIRPA 1)
As for B5, the “EC50 (read off the curve)” value in the experiment with human SIRPA ECD is approximately 300 pM.

B6: α-SIRPA 2 S239D/1332E (antibody, human IgG1, kappa, V domains shown)
VH: EVQLQQSGAELVKPGASVKVSCTGSGFNFKDMYLHWVKQRPEQGLEWIGRIDPENDSTKYDPKFQDKATLTADTASNTAYLQISSLTSEDTAVYYCARGNYVHWGQGTLVTVSA
VL: DIVLTQSPASLAVSLGQRATISCRASESVQYYGTSLMQWYQQKPGQPPKLLIYAASNVGSGVPARFSGSGSGTDFSLNIHPVEEDDIAMYFCQQTRRVWTFGGGTKLEIKR
notes: Chimeric: murine variable regions, hIgG1 constant region with S239D/I332E; also called α-SIRPA 2 S239D/I332E; exemplary anti-SIRPA antibody (α-SIRPA 2)
In the case of B6, the “EC50 (read off the curve)” value with human SIRPA ECD is approximately 300 pM.
